The Human Domainome abundance scans (Beltran et al. 2025)
± gives the uncertainty stated by the source.

B1: POU domain, class 4, transcription factor 3, residues 185 to 256; numbered along this chain, Q15319 (parent)
chain: RELEAFAERFKQRRIKLGVTQADVGAALANLKIPGVGSLSQSTICRFESLTLSHNNMIALKPVLQAWLEEAE

Variants of: B1
Experiment: abundance fitness (aPCA) (normalised: wild type 0, dead -1); higher = more abundant; growth selection in yeast, the domain comes from the species named
Conditions: Homo sapiens
For RELEAFAERFKQRRIKLGVTQADVGAALANLKIPGVGSLSQSTICRFESLTLSHNNMIALKPVLQAWLEQAE [E70Q], the abundance fitness was -0.084 ± 0.055. In the case of RELEAFAERFKQRRIKLGVTQADVGAALANLKIPGVGSLSQSTICRFESLTLSHNNMIALKPVLQAWLESAE [E70S], the abundance fitness is reported as -0.034 ± 0.032. In the case of RELEAFAERFKQRRIKLGVTQADVGAALANLKIPGVGSLSQSTICRFESLTLSHNNMIALKPVLQAWLEMAE [E70M], the abundance fitness is reported as -0.253 ± 0.048. Work on RELEAFAERFKQRRIKLGVTQADVGAALANLKIPGVGSLSQSTICRFESLTLSHNNMIALKPVLQAWLEHAE [E70H] yielded an abundance fitness of -0.014 ± 0.064. For RELEAFAERFKQRRIKLGVTQADVGAALANLKIPGVGSLSQSTICRFESLTLSHNNMIALKPVLQAWLEWAE [E70W], the abundance fitness was -0.29 ± 0.038. RELEAFAERFKQRRIKLGVTQADVGAALANLKIPGVGSLSQSTICRFESLTLSHNNMIALKPVLQAWLEGAE [E70G] showed an abundance fitness of -0.095 ± 0.039. RELEAFAERFKQRRIKLGVTQADVGAALANLKIPGVGSLSQSTICRFESLTLSHNNMIALKPVLQAWLELAE [E70L] showed an abundance fitness of -0.323 ± 0.029. RELEAFAERFKQRRIKLGVTQADVGAALANLKIPGVGSLSQSTICRFESLTLSHNNMIALKPVLQAWLEVAE [E70V] gave an abundance fitness of -0.307 ± 0.036. Work on RELEAFAERFKQRRIKLGVTQADVGAALANLKIPGVGSLSQSTICRFESLTLSHNNMIALKPVLQAWLECAE [E70C] yielded an abundance fitness of -0.271 ± 0.045. RELEAFAERFKQRRIKLGVTQADVGAALANLKIPGVGSLSQSTICRFESLTLSHNNMIALKPVLQAWLEKAE [E70K] showed an abundance fitness of -0.03 ± 0.053. RELEAFAERFKQRRIKLGVTQADVGAALANLKIPGVGSLSQSTICRFESLTLSHNNMIALKPVLQAWLEDAE [E70D] showed an abundance fitness of -0.118 ± 0.069. For RELEAFAERFKQRRIKLGVTQADVGAALANLKIPGVGSLSQSTICRFESLTLSHNNMIALKPVLQAWLEFAE [E70F], the abundance fitness was -0.397 ± 0.043. Work on RELEAFAERFKQRRIKLGVTQADVGAALANLKIPGVGSLSQSTICRFESLTLSHNNMIALKPVLQAWLERAE [E70R] yielded an abundance fitness of -0.036 ± 0.033. For RELEAFAERFKQRRIKLGVTQADVGAALANLKIPGVGSLSQSTICRFESLTLSHNNMIALKPVLQAWLENAE [E70N], the abundance fitness was 0.114 ± 0.056. With RELEAFAERFKQRRIKLGVTQADVGAALANLKIPGVGSLSQSTICRFESLTLSHNNMIALKPVLQAWLEAAE [E70A] the abundance fitness was -0.098 ± 0.042. In the case of RELEAFAERFKQRRIKLGVTQADVGAALANLKIPGVGSLSQSTICRFESLTLSHNNMIALKPVLQAWLEIAE [E70I], the abundance fitness is reported as -0.348 ± 0.054. RELEAFAERFKQRRIKLGVTQADVGAALANLKIPGVGSLSQSTICRFESLTLSHNNMIALKPVLQAWLEYAE [E70Y] gave an abundance fitness of -0.245 ± 0.06. For RELEAFAERFKQRRIKLGVTQADVGAALANLKIPGVGSLSQSTICRFESLTLSHNNMIALKPVLQAWLPEAE [E69P], the abundance fitness was -0.672 ± 0.058. RELEAFAERFKQRRIKLGVTQADVGAALANLKIPGVGSLSQSTICRFESLTLSHNNMIALKPVLQAWLLEAE [E69L] showed an abundance fitness of -0.097 ± 0.027. Work on RELEAFAERFKQRRIKLGVTQADVGAALANLKIPGVGSLSQSTICRFESLTLSHNNMIALKPVLQAWLWEAE [E69W] yielded an abundance fitness of -0.232 ± 0.048. RELEAFAERFKQRRIKLGVTQADVGAALANLKIPGVGSLSQSTICRFESLTLSHNNMIALKPVLQAWLYEAE [E69Y] gave an abundance fitness of -0.059 ± 0.069. With RELEAFAERFKQRRIKLGVTQADVGAALANLKIPGVGSLSQSTICRFESLTLSHNNMIALKPVLQAWLTEAE [E69T] the abundance fitness was -0.075 ± 0.04. For RELEAFAERFKQRRIKLGVTQADVGAALANLKIPGVGSLSQSTICRFESLTLSHNNMIALKPVLQAWLVEAE [E69V], the abundance fitness was -0.046 ± 0.037. For RELEAFAERFKQRRIKLGVTQADVGAALANLKIPGVGSLSQSTICRFESLTLSHNNMIALKPVLQAWLNEAE [E69N], the abundance fitness was -0.06 ± 0.11. Work on RELEAFAERFKQRRIKLGVTQADVGAALANLKIPGVGSLSQSTICRFESLTLSHNNMIALKPVLQAWLQEAE [E69Q] yielded an abundance fitness of -0.091 ± 0.061. RELEAFAERFKQRRIKLGVTQADVGAALANLKIPGVGSLSQSTICRFESLTLSHNNMIALKPVLQAWLMEAE [E69M] showed an abundance fitness of -0.041 ± 0.048. With RELEAFAERFKQRRIKLGVTQADVGAALANLKIPGVGSLSQSTICRFESLTLSHNNMIALKPVLQAWLREAE [E69R] the abundance fitness was -0.065 ± 0.033. Variant RELEAFAERFKQRRIKLGVTQADVGAALANLKIPGVGSLSQSTICRFESLTLSHNNMIALKPVLQAWLEEGE [A71G] has an abundance fitness of -0.226 ± 0.03. Variant RELEAFAERFKQRRIKLGVTQADVGAALANLKIPGVGSLSQSTICRFESLTLSHNNMIALKPVLQAWLEEFE [A71F] has an abundance fitness of -0.139 ± 0.034. With RELEAFAERFKQRRIKLGVTQADVGAALANLKIPGVGSLSQSTICRFESLTLSHNNMIALKPVLQAWLEEEE [A71E] the abundance fitness was -0.103 ± 0.05. RELEAFAERFKQRRIKLGVTQADVGAALANLKIPGVGSLSQSTICRFESLTLSHNNMIALKPVLQAWLEEME [A71M] gave an abundance fitness of -0.106 ± 0.026. Variant RELEAFAERFKQRRIKLGVTQADVGAALANLKIPGVGSLSQSTICRFESLTLSHNNMIALKPVLQAWLEERE [A71R] has an abundance fitness of -0.005 ± 0.043. Work on RELEAFAERFKQRRIKLGVTQADVGAALANLKIPGVGSLSQSTICRFESLTLSHNNMIALKPVLQAWLEEDE [A71D] yielded an abundance fitness of -0.574 ± 0.12. In the case of RELEAFAERFKQRRIKLGVTQADVGAALANLKIPGVGSLSQSTICRFESLTLSHNNMIALKPVLQAWLEEVE [A71V], the abundance fitness is reported as -0.073 ± 0.036. Work on RELEAFAERFKQRRIKLGVTQADVGAALANLKIPGVGSLSQSTICRFESLTLSHNNMIALKPVLQAWLEENE [A71N] yielded an abundance fitness of -0.032 ± 0.036. With RELEAFAERFKQRRIKLGVTQADVGAALANLKIPGVGSLSQSTICRFESLTLSHNNMIALKPVLQAWLEEKE [A71K] the abundance fitness was 0.002 ± 0.027. RELEAFAERFKQRRIKLGVTQADVGAALANLKIPGVGSLSQSTICRFESLTLSHNNMIALKPVLQAWLEEIE [A71I] showed an abundance fitness of -0.178 ± 0.037.
